According to paper PMC7139386, “Defects in Galactose Metabolism and Glycoconjugate Biosynthesis in a UDP-Glucose Pyrophosphorylase-Deficient Cell Line Are Reversed by Adding Galactose to the Growth Medium” (International Journal of Molecular Sciences, 2020):
Residue numbers refer to the chain shown, from its start. In names and notes the source's numbering stands.

B1: HsUGP (Homo sapiens) (protein)
chain: MSRFVQDLSKAMSQDGASQFQEVIRQELELSVKKELEKILTTASSHEFEHTKKDLDGFRKLFHRFLQEKGPSVDWGKIQRPPEDSIQPYEKIKARGLPDNISSVLNKLVVVKLNGGLGTSMGCKGPKSLIGVRNENTFLDLTVQQIEHLNKTYNTDVPLVLMNSFNTDEDTKKILQKYNHCRVKIYTFNQSRYPRINKESLLPVAKDVSYSGENTEAWYPPGHGDIYASFYNSGLLDTFIGEGKEYIFVSNIDNLGATVDLYILNHLMNPPNGKRCEFVMEVTNKTRADVKGGTLTQYEGKLRLVEIAQVPKAHVDEFKSVSKFKIFNTNNLWISLAAVKRLQEQNAIDMEIIVNAKTLDGGLNVIQLETAVGAAIKSFENSLGINVPRSRFLPVKTTSDLLLVMSNLYSLNAGSLTMSEKREFPTVPLVKLGSSFTKVQDYLRRFESIPDMLELDHLTVSGDVTFGKNVSLKGTVIIIANHGDRIDIPPGAVLENKIVSGNLRILDH
notes: octameric
B2: HsUGP (Homo sapiens; G116D) (protein)
chain: B1 chain with G116D
notes: octameric

Tests used:
Type in all cases: biochemical, Homo sapiens
[1] = substrate: O=P(O)(O)O[C@H]1O[C@H](CO)[C@H](O)[C@H](O)[C@H]1O; experiment: continuous assay based on PPi detection, forward reaction, Michaelis-Menten and cooperative fits; conditions: Gal1P varied 0.01-2 mM at 1 mM UTP
[2] = substrate: O=P(O)(O)O[C@H]1O[C@H](CO)[C@@H](O)[C@H](O)[C@H]1O; experiment: continuous assay based on PPi detection, forward reaction, Michaelis-Menten fit; conditions: Glc1P varied 0.01-1 mM at 1 mM UTP
[3] = substrate: O=c1ccn([C@@H]2O[C@H](COP(=O)(O)OP(=O)(O)OP(=O)(O)O)[C@@H](O)[C@H]2O)c(=O)[nH]1; experiment: as above; conditions: UTP varied 0.01-0.8 mM at 2 mM Glc1P

Row | Protein | Km [1] | Km [2] | Km [3]
1 | B1 | 842.0 ± 72.8 µM | 34.2 ± 1.99 µM | 76.29 ± 3.96 µM
2 | B2 | – | 53.97 ± 4.11 µM | 79.50 ± 4.93 µM
